From the Human Domainome abundance scans (Beltran et al. 2025) come the findings set out here.

B1: Androgen receptor, residues 557 to 632; numbered along this chain, P10275 (parent)
chain: QKTCLICGDEASGCHYGALTCGSCKVFFKRAAEGKQKYLCASRNDCTIDKFRRKNCPSCRLRKCYEAGMTLGARKL

± gives the uncertainty stated by the source.

The variants in the data set derive from B1. Kind of data set: abundance fitness (aPCA) (normalised: wild type 0, dead -1); higher = more abundant; growth selection in yeast, the domain comes from the species named. Particulars: Homo sapiens.
For QKTCLICGDEASGCHYGALTCGSCKVFFKRAAEGKQKYLCASRNDCTIDQFRRKNCPSCRLRKCYEAGMTLGARKL [K50Q], the abundance fitness was -0.075 ± 0.11.

QKTCLICGDEASGCHYGALTCGSCKVFFKRAAEGKQKYLCASRNDCTIDKFRRKNLPSCRLRKCYEAGMTLGARKL [C56L]: the abundance fitness was -0.498 ± 0.12.

With QKTCLICGDEASGCHYGALTCGSCKVFFKRAAEGKQKYLCASRNDCTIDKFRRKNCPACRLRKCYEAGMTLGARKL [S58A], the abundance fitness is -0.035 ± 0.068.

For QKTCLICGDEASGCHYGALTCGSCKVFFKRAAEGKQKYLCASRNDCTIDKFRRKNCPYCRLRKCYEAGMTLGARKL [S58Y], the abundance fitness is -0.202 ± 0.064.

Regarding QKTCLICGDEASGCQYGALTCGSCKVFFKRAAEGKQKYLCASRNDCTIDKFRRKNCPSCRLRKCYEAGMTLGARKL [H15Q], the abundance fitness is -0.175 ± 0.12.

As for QKTCLICGDEASGCHYGALTCGSCKVFFKRAAEGKQKYLCASRNDCTIGKFRRKNCPSCRLRKCYEAGMTLGARKL [D49G], the abundance fitness is -0.197 ± 0.073.

On to QKTCLICGDEASGCHYGALTCGSCKVFFKRAAEGKQKYLCASRNDCTIKKFRRKNCPSCRLRKCYEAGMTLGARKL [D49K], for which the abundance fitness is -0.317 ± 0.16.

QKTCLICGDEASGCHYGALTCGSCKVFFKRAAEGKQKYLCASRNDCTISKFRRKNCPSCRLRKCYEAGMTLGARKL [D49S]: the abundance fitness is -0.139 ± 0.063.

On to QKTCLICGDEASGCHYGALTCGSCKVFFKRAAEGKQKYLCASRNFCTIDKFRRKNCPSCRLRKCYEAGMTLGARKL [D45F], for which the abundance fitness is -0.498 ± 0.24.

For the variant HKTCLICGDEASGCHYGALTCGSCKVFFKRAAEGKQKYLCASRNDCTIDKFRRKNCPSCRLRKCYEAGMTLGARKL [Q1H], the abundance fitness was -0.504 ± 0.32.

As for QKTCLICGDEASGCHYGALTCGSCKVFFKRAAEGKQKYLCASRNDCTIDKFRRKNCPSCRLRKCYEAGMTLGMRKL [A73M], the abundance fitness is -0.18 ± 0.12.

For the variant QKTCLICGDEASGCHLGALTCGSCKVFFKRAAEGKQKYLCASRNDCTIDKFRRKNCPSCRLRKCYEAGMTLGARKL [Y16L], the abundance fitness is -0.275 ± 0.032.

For the variant QKTCLICGDEASGCHGGALTCGSCKVFFKRAAEGKQKYLCASRNDCTIDKFRRKNCPSCRLRKCYEAGMTLGARKL [Y16G], the abundance fitness is -0.432 ± 0.034.

Regarding QKTCLICGDEASGCHMGALTCGSCKVFFKRAAEGKQKYLCASRNDCTIDKFRRKNCPSCRLRKCYEAGMTLGARKL [Y16M], the abundance fitness is -0.11 ± 0.041.

Take QKTCLICGDEASGCHCGALTCGSCKVFFKRAAEGKQKYLCASRNDCTIDKFRRKNCPSCRLRKCYEAGMTLGARKL [Y16C]: the abundance fitness was -0.566 ± 0.081.

For the variant QKTCLICGDEASGCHYGALTCGSCKVFFKRAAEGKQKYLCASRNDCTIDKFRRKNCPSCRLRKCYEAGMTMGARKL [L71M], the abundance fitness was determined as 0.115 ± 0.078.

For QKTCLICGDEASGCHYGALTCGKCKVFFKRAAEGKQKYLCASRNDCTIDKFRRKNCPSCRLRKCYEAGMTLGARKL [S23K], the abundance fitness was -0.142 ± 0.039.

QKTCLICGDEASGCHYGALTCGFCKVFFKRAAEGKQKYLCASRNDCTIDKFRRKNCPSCRLRKCYEAGMTLGARKL [S23F]: the abundance fitness was -0.11 ± 0.084.

In the case of QKTCLICGDEASGCHYGALTCGECKVFFKRAAEGKQKYLCASRNDCTIDKFRRKNCPSCRLRKCYEAGMTLGARKL [S23E], the abundance fitness is -0.013 ± 0.034.

As for QKTCLICGDEASGCHYGALTCGSCKVFFKTAAEGKQKYLCASRNDCTIDKFRRKNCPSCRLRKCYEAGMTLGARKL [R30T], the abundance fitness was 0.01 ± 0.065.

For QKTCLICGDEASGCHYGALTCGSCKVFFKHAAEGKQKYLCASRNDCTIDKFRRKNCPSCRLRKCYEAGMTLGARKL [R30H], the abundance fitness was 0.114 ± 0.074.

Take QKTHLICGDEASGCHYGALTCGSCKVFFKRAAEGKQKYLCASRNDCTIDKFRRKNCPSCRLRKCYEAGMTLGARKL [C4H]: the abundance fitness was -0.851 ± 0.4.

In the case of QKTCLICGDEASGCHYGYLTCGSCKVFFKRAAEGKQKYLCASRNDCTIDKFRRKNCPSCRLRKCYEAGMTLGARKL [A18Y], the abundance fitness is -0.776 ± 0.13.

With QKTCLICGDEASGCHYGALTCGSCKVFFKRKAEGKQKYLCASRNDCTIDKFRRKNCPSCRLRKCYEAGMTLGARKL [A31K], the abundance fitness is -0.627 ± 0.18.

As to QKTCLICGDEASGCHYGALTCGSCKVFFKRNAEGKQKYLCASRNDCTIDKFRRKNCPSCRLRKCYEAGMTLGARKL [A31N], the abundance fitness was -0.144 ± 0.14.

Consider QKTCLICGDEASGCHYGALTCGSCKVFFKRHAEGKQKYLCASRNDCTIDKFRRKNCPSCRLRKCYEAGMTLGARKL [A31H], for which the abundance fitness is -0.102 ± 0.079.

In the case of QKTCLICGDEASGCHYGALTCGSMKVFFKRAAEGKQKYLCASRNDCTIDKFRRKNCPSCRLRKCYEAGMTLGARKL [C24M], the abundance fitness is -0.964 ± 0.075.

Turning to QKTCLICWDEASGCHYGALTCGSCKVFFKRAAEGKQKYLCASRNDCTIDKFRRKNCPSCRLRKCYEAGMTLGARKL [G8W], the abundance fitness is -0.529 ± 0.12.

In the case of QKTCLICGDEASGCHYGALTCGSCKVFFKRAAEGKQKYLCASRNDCTIDKFARKNCPSCRLRKCYEAGMTLGARKL [R52A], the abundance fitness is -0.157 ± 0.08.

In the case of QKTCLICGDEASGCHYGALTCGSCKVFFKRAAEGKQKYLCASRNDCTIDKFERKNCPSCRLRKCYEAGMTLGARKL [R52E], the abundance fitness is -0.003 ± 0.091.

Regarding QKTCLICGDEASGCHYGALTCGSCKVFFKRAAEGKQKYLCASRNDCTIDKFDRKNCPSCRLRKCYEAGMTLGARKL [R52D], the abundance fitness is 0.047 ± 0.092.

For the variant QKTCLICGDEASGCHYGALTCGSCKVFFKRAAEGKQKYLCASRNDCWIDKFRRKNCPSCRLRKCYEAGMTLGARKL [T47W], the abundance fitness was -0.244 ± 0.039.

As for QKTCLICGDEASGCHYGALTCGSCKVFFKRAAEGKQKYLCASRNDCDIDKFRRKNCPSCRLRKCYEAGMTLGARKL [T47D], the abundance fitness is -0.017 ± 0.047.

As to QKTCLICGDEASGCHYGALECGSCKVFFKRAAEGKQKYLCASRNDCTIDKFRRKNCPSCRLRKCYEAGMTLGARKL [T20E], the abundance fitness is -0.825 ± 0.12.

QKTCLICGDEASGCHYGALLCGSCKVFFKRAAEGKQKYLCASRNDCTIDKFRRKNCPSCRLRKCYEAGMTLGARKL [T20L]: the abundance fitness was -0.166 ± 0.043.

Regarding QKTCLICGDEASGCHYGALICGSCKVFFKRAAEGKQKYLCASRNDCTIDKFRRKNCPSCRLRKCYEAGMTLGARKL [T20I], the abundance fitness was -0.035 ± 0.22.
